Entries after “also recorded” stand apart in the source; their conditions may differ.
B1: Zuo1: J-domain protein (Hsp40), RAC subunit (protein)
chain: MFSLPTLTSDITVEVNSSATKTPFVRRPVEPVGKFFLQHAQRTLRNHTWSEFERIEAEKNVKTVDESNVDPDELLFDTELADEDLLTHDARDWKTADLYAAMGLSKLRFRATESQIIKAHRKQVVKYHPDKQSAAGGSLDQDGFFKIIQKAFETLTDSNKRAQYDSCDFVADVPPPKKGTDYDFYEAWGPVFEAEARFSKKTPIPSLGNKDSSKKEVEQFYAFWHRFDSWRTFEFLDEDVPDDSSNRDHKRYIERKNKAARDKKKTADNARLVKLVERAVSEDPRIKMFKEEEKKEKERRKWEREAGARAEAEAKAKAEAEAKAKAESEAKANASAKADKKKAKEAAKAAKKKNKRAIRNSAKEADYFGDADKATTIDEQVGLIVDSLNDEELVSTADKIKANAAGAKEVLKESAKTIVDSGKLPSSLLSYFV
B2: Ssz1: Hsp70 homolog, RAC subunit (protein)
chain: MSSPVIGITFGNTSSSIAYINPKNDVDVIANPDGERAIPSALSYVGEDEYHGGQALQQLIRNPKNTIINFRDFIGLPFDKCDVSKCANGAPAVEVDGKVGFVISRGEGKEEKLTVDEVVSRHLNRLKLAAEDYIGSAVKEAVLTVPTNFSEEQKTALKASAAKIGLQIVQFINEPSAALLAHAEQFPFEKDVNVVVADFGGIRSDAAVIAVRNGIFTILATAHDLSLGGDNLDTELVEYFASEFQKKYQANPRKNARSLAKLKANSSITKKTLSNATSATISIDSLADGFDYHASINRMRYELVANKVFAQFSSFVDSVIAKAELDPLDIDAVLLTGGVSFTPKLTTNLEYTLPESVEILGPQNKNASNNPNELAASGAALQARLISDYDADELAEALQPVIVNTPHLKKPIGLIGAKGEFHPVLLAETSFPVQKKLTLKQAKGDFLIGVYEGDHHIEEKTLEPIPKEENAEEDDESEWSDDEPEVVREKLYTLGTKLMELGIKNANGVEIIFNINKDGALRVTARDLKTGNAVKGEL
modifications: left off: His6-SUMO, N-terminal, state not stated
notes: Hsp70 homolog, RAC subunit
B3: Ssz1mut: Ssz1 with L439S/K440P/I448F/G495K in the peptide binding groove (protein)
chain: MSSPVIGITFGNTSSSIAYINPKNDVDVIANPDGERAIPSALSYVGEDEYHGGQALQQLIRNPKNTIINFRDFIGLPFDKCDVSKCANGAPAVEVDGKVGFVISRGEGKEEKLTVDEVVSRHLNRLKLAAEDYIGSAVKEAVLTVPTNFSEEQKTALKASAAKIGLQIVQFINEPSAALLAHAEQFPFEKDVNVVVADFGGIRSDAAVIAVRNGIFTILATAHDLSLGGDNLDTELVEYFASEFQKKYQANPRKNARSLAKLKANSSITKKTLSNATSATISIDSLADGFDYHASINRMRYELVANKVFAQFSSFVDSVIAKAELDPLDIDAVLLTGGVSFTPKLTTNLEYTLPESVEILGPQNKNASNNPNELAASGAALQARLISDYDADELAEALQPVIVNTPHLKKPIGLIGAKGEFHPVLLAETSFPVQKKLTSPQAKGDFLFGVYEGDHHIEEKTLEPIPKEENAEEDDESEWSDDEPEVVREKLYTLKTKLMELGIKNANGVEIIFNINKDGALRVTARDLKTGNAVKGEL

Columns and labels:
[1] = system: nascent Pgk1-100; assay: crosslinking to ribosome-bound nascent chain; assay type: binding, Saccharomyces cerevisiae; conditions: BS3
Description: (§1) DNA templates for transcription reactions were generated by PCR using pSPUTK-Pgk1[20] as a template. Reverse primers were designed such, that PCR products encoded different length PGK1 sequences, which all lacked a stop codon. The length of the resulting translation products, which remain ribosome-bound, is indicated in Results and Figure Legends. Transcripts were generated using SP6 polymerase (Thermo Fischer Scientific) as previously described. RNCs were generated via translation reactions primed with the stop codon-less transcripts at 20 °C in the presence of [^35S]-methionine (Hartmann-Analytic) for 80 min[20],[54]. Translation reactions were stopped by the addition of 50 µg/ml cycloheximide final concentration and subsequently RNCs were isolated via centrifugation at 400.000 g for 20 min in a TLA-100 or TLA-100.2 rotor (Beckman Coulter)[20].
(§2) Chemical crosslinking of ribosome-bound nascent chains to Ssb, Zuo1, or Ssz1 was analyzed essentially as described. In brief, resuspended RNCs were incubated in the presence of 400 µM BS^3 (bis-(sulfosuccinimidyl)-suberate, spacer length 1.14 nm, Thermo Scientific) for 20 min on ice and crosslinking was then quenched by the addition of TRIS base (tris(hydroxymethyl)aminomethane) to a final concentration of 50 mM. Crosslinked protein samples were precipitated by the addition of TCA (final concentration 5%), pellets were collected by centrifugation and were dissolved in dissociation buffer (200 mM TRIS/HCl pH 7.5, 4% SDS; 10 mM EDTA, 100 µg/ml BSA, protease inhibitor mix, 1 mM PMSF). Totals shown in Figs. 1,3 and Supplementary Fig. 1 before (total) and after BS^3 crosslinking (total + BS^3) represent 5% of the dissolved material employed for immunoprecipitation reactions. The resulting denatured protein samples were used to identify crosslink products between Ssb, Zuo1, or Ssz1 and nascent chains via affinity purification under denaturing conditions. To that end, protein A sepharose beads (GE Healthcare) were pre-coated with antibodies directed against Ssb, Zuo1, or Ssz1 and subsequently the denatured crosslinked material was allowed to bind to the beads resuspended in immunoprecipitation buffer (10 mM TRIS/HCl pH 7.5, 150 mM NaCl, 5 mM EDTA, 1% Triton X-100, protease inhibitor mix, 0.5 mM PMSF)[20]. Crosslink products bound to protein A sepharose beads were released by addition of SDS-sample buffer at 95 °C for 10 min. Samples were analyzed on Tris-Tricine gels[56] followed by autoradiography. Loading was normalized according to the signal of [^35S]-labelled nascent Pgk1 in the total prior to crosslinking. Relative crosslinking efficiencies between nascent Pgk1-100 and Zuo1 or Ssz1, respectively were determined as follows. For each biological replicate, band intensities of non-crosslinked nascent Pgk1-100 and of Pgk1-100 crosslink products (XL-Zuo1 or XL-Ssz1) was determined on a single autoradiograph for wild type RAC and the different mutant variants of RAC. The crosslinking efficiency (XL-Zuo1/Pgk1-100 or XL-Ssz1/Pgk1-100) of each sample was calculated and subsequently the ratio of XL-Zuo1/Pgk1-100 or XL-Ssz1/Pgk1-100 in the presence of wild type RAC was set to 1 in order to normalize the biological replicates (see Fig. 3c,d). The original data are provided as a Source Data file.
For complementation experiments translation reactions were performed in either ∆ssb1∆ssb2 or ∆ssb1∆ssb2∆zuo1∆ssz1 translation extract as indicated. Complementation with purified Ssb1 was performed by adding His6-tagged ScSsb1 at a final concentration of 2 µM to the translation reaction prior to the addition of mRNA. Ribosome-free cytosolic extract of various mutant yeast strains for complementation experiments as indicated in Results and Figure Legends was generated as follows. The A260 of a total cell extract prepared by the glass beads method (see above) was determined, and the total cell extract was subsequently adjusted to a final concentration of 800 mM KOAc. […]

[2] = system: ribosomes; assay: ribosome-binding assay; parameters: species or system Saccharomyces cerevisiae
Method: Yeast strains were grown to early log phase on YPD, prior to harvest cycloheximide was added to a final concentration of 100 µg/ml, and subsequently cells were collected via centrifugation at 5000 g. Cell pellets were resuspended in ribosome-binding buffer (20 mM Hepes/KOH pH 7.4, 2 mM Mg(OAc)2, 120 mM KOAc, 100 µg/ml cycloheximide, 2 mM DTT, 1 mM PMSF, protease inhibitor mix) and total cell extracts were prepared by the glass beads method. After a clearing spin at 20.000 g, each 60 µl of the total glass beads extract (A260 between 80 and 100 mAU) was loaded onto a 90 µl sucrose cushion (25% sucrose, 20 mM Hepes/KOH pH 7.4, 120 mM KOAc, 2 mM Mg(OAc)2, 2 mM DTT, 1 mM PMSF, protease inhibitor mix). After centrifugation at 400.000 g at 4 °C for 25 min the cytosolic supernatant was collected and the ribosomal pellet was resuspended in 300 µl ribosome-binding buffer. Aliquots of the total cell extract, cytosolic supernatant, and resuspended ribosomal pellets were precipitated by addition of TCA (trichloroacetic acid) to a final concentration of 5%. TCA pellets were dissolved in SDS-sample buffer and were analyzed on 10% Tris-Tricine gels followed by immunoblotting.

[3] = system: nascent Pgk1-50; assay: crosslinking to ribosome-bound nascent chain; assay type: binding, Saccharomyces cerevisiae; conditions: wild type translation extract; BS3
Description: as §1, §2

[4] = system: nascent Pgk1-45; assay: crosslinking to ribosome-bound nascent chain; assay type: binding, Saccharomyces cerevisiae; conditions: wild type translation extract; BS3
Description: as §1, §2

[5] = system: nascent Pgk1 chains of 50–150 residues; assay: crosslinking to ribosome-bound nascent chain; assay type: binding, Saccharomyces cerevisiae; conditions: Δssb1Δssb2 translation extract (Ssb absent); BS3
Description: as §1, §2

[6] = system: nascent Pgk1-40; assay: crosslinking to ribosome-bound nascent chain; assay type: binding, Saccharomyces cerevisiae; conditions: wild type translation extract; BS3
Description: as §1, §2

Molecule | crosslink to nascent Pgk1-50 [3] | crosslink to nascent Pgk1-45 [4] | crosslink to nascent chains of 50–150 residues [5] | crosslink to nascent Pgk1-40 [6] | further results
Ssb-ΔC23 | – | – | – | – | crosslink to nascent Pgk1-100 ([1]; Ssb-ΔC23 translation extract): no crosslink between Ssb-ΔC23 and Pgk1-100 was detected; ribosome association ([2]; Ssb-ΔC23 translation extract, supernatant/pellet, immunoblot): not ribosome-associated but fully recovered in the supernatant fraction; ribosome binding ([2]; total cell extract, supernatant/pellet, immunoblot): fully recovered in the cytosol
B1 | below the detection limit | formed crosslinks with these short nascent chains | efficient crosslinks | most efficiently crosslinked to Pgk1-40 | crosslinking of Zuo1 to nascent Pgk1 when RAC or Ssz1 is absent from ribosomes ([1]; Fig. 1e set-up): strongly enhanced; contact of Zuo1 with nascent Pgk1-100 when Ssz1 was absent or not in a stable complex ([1]; Δzuo1Δssz1Δssb1Δssb2 RNCs complemented with ribosome-free extracts): remained in contact with Zuo1
B2 | below the detection limit | most efficiently crosslinked to Pgk1-45 | efficient crosslinks | formed crosslinks with these short nascent chains | localization of Ssz1 in RAC-∆N49 ([2]; total cell extract): localized to the cytosol; localization of Ssz1 in wild type, RAC-∆N8, or RAC-∆N16 ([2]; total cell extract): ribosome-bound
B3 | – | – | – | – | contact of nascent Pgk1-100 with Ssz1mut compared to Ssz1 ([1]; RACmut-ΔN8 (Zuo1-ΔN8/Ssz1mut) vs RAC-ΔN8): impaired; also recorded: strongly reduced

— article PMC7083937, “The ribosome-associated complex RAC serves in a relay that directs nascent chains to Ssb” (Nature Communications, 2020)
